The RNAGym collection of RNA variant scans (doi:10.7554/elife.80360)

B1: Hairpin Ribozyme (parent)
chain: GUCCUCUUUCACGUGCGCGUGAAAGAGAGAAGUGAACCAGAGAAACACACGUUGUGGUAUAUUACCUGGUA

Variants of: B1
Assay: self-cleavage, relative activity (ratio to wild type); higher = more cleavage; co-transcriptional

Variant	self-cleavage
A43U A61C	0.123
A43U A61G	0.144
G42A A64U	0.107
A41U U60A	1.37
G42A U67A	0.219
G42A U67G	0.125
G42U U58A	0.0966
A41U A49C	0.238
A41U A49G	1.06
A43C U60G	0.0932
A43C U60A	0.162
A43U U52A	0.229
A44U C66A	0.151
A44U C66U	0.222
A43G U55G	0.128
A41U U58C	1.41
G42A U60A	0.0887
A43C U53A	0.129
A43C U53C	0.163
G42A U63G	0.193
A41G G51C	0.677
A44C C65U	0.142
A41U C66U	0.46
A41G G56A	0.255

Variant	self-cleavage
A44G U55G	0.185
A44U U63A	0.141
A44U U63C	0.135
A44U U55C	0.168
A41U G42C	0.464
A41U A43U	0.187
G42U G57A	0.187
G42U G57C	0.0657
G42U G57U	0.187
A41G A61U	0.195
G42U U63G	0.168
G42C U53C	0.491
A44C C48A	0.161
A44C C48G	0.151
A43C G54A	0.217
A43C G54C	0.163
A44C U70G	0
A44G C65G	0.192
G42A C66U	0.147
G42U C48A	0.215
A43C U58A	0.174
G42U U55A	0.069
A41G U55G	0.138
A44C U58A	0.0929

Variant	self-cleavage
A43G U53G	0.226
G42U A43G	0.102
G42U A43U	0.108
G42U A43C	0.179
G42C U52C	0.427
A43U U70G	0.0463
A41U A45G	0.218
A41U A64C	0.153
A41U A64G	0.372
A41U A64U	0.258
A43G C66U	0.139
A43G C66A	0.171
A43G C66G	0.0518
A41G G54A	0.481
A41G G54C	0.672
A41G C65U	1.05
G42C G69C	0.145
G42C G69U	0.157
G42C G69A	0.0872
A44G U53A	0.214
A44G U53G	0.112
G42C G56C	0.159
A44U A49C	0.0643
A44G A71G	0.117

Variant	self-cleavage
G42U C46U	0.205
G42C G54C	0.113
G42C C48G	0.113
G42C C48U	0.143
A41U A44C	0.115
A41U A44G	0.153
G42U C50A	0.189
G42U C50G	0.26
A43C U55G	0.148
A44C A49C	0.103
A44C U62A	0.156
A43G U67C	0.153
A43G U67G	0.207
A43U A49C	0.173
A41G G69U	0.42
A44U C48A	0.124
A44G C46G	0.0715
A43U G56C	0.0883
A43U G56U	0.133
A43U C66U	0.162
A43U C66A	0.0293
A44G U58C	0.0672
A43C U67C	0.112
A43C U67A	0.0731

Variant	self-cleavage
G42A G68U	0.144
G42U G51U	0.345
G42U G51A	0.191
A44U A61G	0.124
G42U C66A	0.162
A43U U60C	0.221
G42C C50A	0.212
G42U G68C	0.152
G42U G68A	0.129
A44G U63C	0.21
A44G U63G	0.239
G42A U53C	0.388
G42A U53G	0.237
G42C U62A	0.102
G42C U62C	0.221
G42C U62G	0.0896
G42A A49G	0.118
G42U A49G	0.134
A41U U62A	0.143
A41U U62G	0.202
A41U U62C	0.711
A43U G69A	0.119
A43U G69C	0.119
A45C C50G	0.211

Variant	self-cleavage
A45C C50A	0.209
A44U U60C	0.103
G42C A71G	0.339
G42C A71U	0.142
A43G C65G	0.117
A44C U55A	0.0312
G42U U67A	0.151
G42A U52A	0.221
A43U G54A	0.128
A43U G54C	0.0498
G42C A64G	0.232
A43C A71U	0.159
A43C A71C	0.26
G42U C65G	0.209
G42A U62A	0.151
G42A U62C	0.133
A44G A47U	0.163
A44G A47C	0.222
G42U A45U	0.112
G42U A45C	0.227
G42U A45G	0.131
A44G C66G	0.15
A44C G57U	0.0814
A43G U58A	0.128

Variant	self-cleavage
A43U U55G	0.232
A43G A49C	0.116
A43G A49U	0.197
G42C U58C	0.185
A43C A45C	0.153
A41G G57U	0.184
A41G G57A	0.184
A43C U63A	0.126
A43C A44G	0.0582
A43U A44G	0.163
A43U C48A	0.206
A44C A59G	0.158
A44C A59C	0.15
A43C A49U	0.142
A44G U52C	0.223
A44C A45U	0.0709
G42A G69A	0.112
A44G G54C	0.119
A45C C46U	0.067
A45C C46A	0.152
A41U C50G	0.756
A44C A71C	0.323
A44G A49C	0.0332
A44G A49G	0.126

Variant	self-cleavage
A43C U52C	0.109
A43C U52G	0.164
A41G C50A	0.255
A43G A47C	0.172
A43C G68U	0.0938
A43C G68A	0.176
A44G U70G	0.135
A41U U53G	1.16
G42A A47G	0.162
A44C C66A	0.215
A44C C66G	0.0764
A44C C66U	0.107
A43C A61U	0.0908
A43C A61C	0.218
G42U U70C	0.162
G42U U70A	0.233
A44U G56A	0.191
G42C A45G	0.095
G42C A45U	0.124
G42A A43C	0.127
G42C C46U	0.12
A44C A64C	0.0397
A44C A64G	0.141
A44C A64U	0.155

Variant	self-cleavage
G42C U63G	0.238
A44G A64C	0.12
A44G A64U	0.102
A43G A44U	0.207
A45C G51U	0.116
A44U A64U	0.203
A44U A64C	0.216
G42C G57U	0.146
A41U C46G	0.133
A44G G56C	0.0768
A44G G56A	0.191
A41U G56A	0.285
A41U G56U	0.125
A41U G57U	0.493
A44U U52G	0.121
A41U G54U	1.19
A41G G68U	0.364
A43C U62C	0.129
A45C A59G	0.208
A41U A61C	0.39
A41U G69C	0.55
A41U G69U	0.348
A41U G69A	0.685
A44C A47G	0.125

Variant	self-cleavage
A41G U53G	1.05
A45C A71G	0.154
A43G C48G	0.139
A41G A71G	1.08
A41G A71C	1.34
A41G A71U	0.733
A43G U60C	0.0979
A44U A59G	0.253
A44U A59U	0.0331
A43C A64U	0.198
A44C C50G	0
A45C G54U	0.152
A43G G56U	0.0228
A43G G56C	0.0421
G42U G54C	0.122
G42U G54U	0.191
G42U G54A	0.197
A43U G57U	0.152
A43U G57A	0.119
A43G U52A	0.202
A43G U52G	0
A41G U62C	0.198
A41G U62A	0.0775
A44C U60G	0.0874

Variant	self-cleavage
G42A C46U	0.0972
A43C C48G	0.0498
A45C C48G	0.188
A45C C48A	0.0612
A44C G56C	0.0706
G42A G56C	0.105
A43U A71C	0.396
G42C A47U	0.147
G42C C65A	0.21
A45C A64C	0.138
A45C A64U	0.223
G42U G56U	0.169
G42U G56C	0.147
G42A U58C	0.21
A43U G51A	0.247
A43U G51U	0.0946
A43U G51C	0.241
A44U C46U	0.193
G42C A59C	0.188
G42C A59U	0.156
A44C G69U	0.167
A44C G69C	0.141
A41G A64G	0.326
A44U A47C	0.0912

Variant	self-cleavage
A43C A59U	0.101
G42C U70G	0.145
G42U A71G	0.393
G42U A71U	0.217
A43C A47U	0.24
A43C A47C	0.0231
G42A A61C	0.0818
G42A A61U	0.125
G42C A43G	0.177
A43U A47C	0.178
A45C C65A	0.2
A43G G68U	0.092
A43G G68A	0.172
G42A A45U	0.109
A41U U70A	0.776
A41U U70G	1.1
A44U G54A	0.181
A44G G57A	0.123
A44C G68A	0.103
A44U C50U	0.252
A41G C46A	0.151
A44U A71U	0.256
A44U A71C	0.3
A43G C50A	0.131

Variant	self-cleavage
G42C C66G	0.137
G42C C66U	0.13
G42C C66A	0.103
A44G A59G	0.131
A43G A71U	0.16
A43G A71G	0.165
A43G A71C	0.458
A41U	1.29
G42C U67G	0.125
G42C U67A	0.0793
A43U C65A	0.0905
A44G C50A	0.198
A44G C50U	0.134
A41G C48U	0.162
A41G C48G	0.121
A43G G69A	0.0947
A43G A64U	0.302
A43C C66U	0.181
A44G A45U	0.0878
A44G A45G	0.228
A43C C50A	0.162
A43C C50G	0.143
A43C G56A	0.13
A43C G56U	0.141

Variant	self-cleavage
A43C G56C	0.165
G42A U70C	0.128
A43G C46G	0.26
A44G U62C	0.12
A41U G51U	1.5
A41G U52G	1.15
A41G C66U	0.682
A41G C66A	0.355
G42C U60C	0.419
G42C G51U	0.448
A44G U67C	0.145
A44C A61U	0.212
A45C A49U	0.202
A45C A61G	0.105
G42U A61U	0.283
G42A C48G	0.127
A43C C46U	0.194
A44C U63G	0.182
A41G U60G	0.367
G42C A44U	0.174
G42C A44C	0.0939
G42C A44G	0.137
